In paper PMC7669825, “Escherichia coli RelA Regulation via Its C-Terminal Domain” (Frontiers in Microbiology, 2020):

Columns and labels:
[1] = target: T1, RelA (Escherichia coli, full length, His-tagged) (Escherichia coli, UniProt P0AG20 1-744); assay: cross-linking; 10 ul with 12.5 mM Na phosphate pH 7.2, 12.5 mM NaCl, 2.5% glycerol, 1 x 10^-3% glutaraldehyde, 4 ug of protein; 15 min on ice; SDS-PAGE and Western blot with anti-His antibody; settings: both partners purified
T1 construct: RelA, (p)ppGpp synthetase of Escherichia coli, 84 kDa, 744 AA (NTD AAs 1-455, CTD AAs 405-744); also called WT RelA; WT-RelA; source: E. coli CF9467 (pQE30-relA), purified (Ni-NTA agarose); not shown: His6, N-terminal, kept
T1 sequence (looked up): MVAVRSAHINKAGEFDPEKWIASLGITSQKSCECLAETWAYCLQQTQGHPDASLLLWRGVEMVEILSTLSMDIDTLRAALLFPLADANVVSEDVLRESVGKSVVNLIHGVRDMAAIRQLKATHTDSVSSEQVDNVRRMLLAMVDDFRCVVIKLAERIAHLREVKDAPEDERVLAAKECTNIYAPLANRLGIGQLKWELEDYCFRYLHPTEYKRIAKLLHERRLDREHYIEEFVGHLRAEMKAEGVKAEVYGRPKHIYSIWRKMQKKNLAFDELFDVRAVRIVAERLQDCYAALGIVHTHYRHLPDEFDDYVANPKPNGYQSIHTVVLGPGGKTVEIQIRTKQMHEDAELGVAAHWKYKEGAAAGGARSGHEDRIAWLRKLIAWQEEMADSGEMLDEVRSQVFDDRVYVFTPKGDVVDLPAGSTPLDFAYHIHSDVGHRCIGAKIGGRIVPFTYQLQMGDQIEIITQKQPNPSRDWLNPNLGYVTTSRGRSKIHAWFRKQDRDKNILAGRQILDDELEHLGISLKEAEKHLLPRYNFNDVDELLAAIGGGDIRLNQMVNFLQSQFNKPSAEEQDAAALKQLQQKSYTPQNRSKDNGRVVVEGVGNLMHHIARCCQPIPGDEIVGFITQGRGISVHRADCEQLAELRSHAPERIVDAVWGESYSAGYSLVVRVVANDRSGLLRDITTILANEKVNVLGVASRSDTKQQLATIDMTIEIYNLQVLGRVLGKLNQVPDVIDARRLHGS

[2] = target: the molecule itself; assay: as above

B1: YG4 (fragment of the RelA C-terminal domain, AA 564-744, His-tagged) (domain or fragment, Escherichia coli, UniProt P0AG20 564-744, looked up)
chain: FNKPSAEEQDAAALKQLQQKSYTPQNRSKDNGRVVVEGVGNLMHHIARCCQPIPGDEIVGFITQGRGISVHRADCEQLAELRSHAPERIVDAVWGESYSAGYSLVVRVVANDRSGLLRDITTILANEKVNVLGVASRSDTKQQLATIDMTIEIYNLQVLGRVLGKLNQVPDVIDARRLHGS
notes: RelA of Escherichia coli, AA 564-744 (MW 21 kDa); holds the RIS domain (AA 585-660) and the ACT domain (AA 665-744); also called native YG4; WT-YG4; source: E. coli CF9467 (pYG4), purified (Ni-NTA agarose); not shown: His6, N-terminal, kept
B1: binds [1]; binds [2].
